From patent publication EP2922560B1

Biological target: native human IL-23 receptor on the surface of cultured human cells (K-562, THP-1, Jurkat) and primary human T-cells (human) (UniProt Q5VWK5)
Assay: cell-based or functional assay

native human IL-23 receptor on the surface of cultured human cells (K-562, THP-1, Jurkat) and primary human T-cells (human), sequence (Q5VWK5 24-629): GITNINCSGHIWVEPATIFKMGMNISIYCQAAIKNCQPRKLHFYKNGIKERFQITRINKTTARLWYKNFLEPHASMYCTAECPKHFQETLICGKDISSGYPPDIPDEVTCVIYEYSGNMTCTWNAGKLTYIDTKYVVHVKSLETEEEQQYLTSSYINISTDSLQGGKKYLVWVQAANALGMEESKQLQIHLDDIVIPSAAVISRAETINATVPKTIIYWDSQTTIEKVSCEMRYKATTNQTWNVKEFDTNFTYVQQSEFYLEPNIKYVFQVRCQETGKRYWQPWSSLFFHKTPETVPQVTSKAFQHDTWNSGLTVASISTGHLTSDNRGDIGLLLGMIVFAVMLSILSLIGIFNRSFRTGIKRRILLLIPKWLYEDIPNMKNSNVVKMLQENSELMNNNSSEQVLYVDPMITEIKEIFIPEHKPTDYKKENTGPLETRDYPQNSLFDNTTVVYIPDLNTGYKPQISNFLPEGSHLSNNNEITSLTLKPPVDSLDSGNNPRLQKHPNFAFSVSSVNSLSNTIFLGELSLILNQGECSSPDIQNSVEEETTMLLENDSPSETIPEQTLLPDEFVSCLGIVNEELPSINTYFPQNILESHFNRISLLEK

Th-17+ cell expansion (IL-17-producing cells) in PBMC suspensions after 3 days, normalized to IL-23 only = 1 (normalized cell count (IL-23 only = 1)): 0.88
Th-17+ cell expansion in separated T-cell samples after 3 days, normalized to IL-23 only = 1 (normalized cell count (IL-23 only = 1)): 0.99
Substance: His6-ABDwt-TolA-AVI (from UniProt P19934 131-421)
